Measurements reported in PMC12521702, “Development of a trispecific fusion protein based on angiotensin-converting enzyme 2, glycoprotein 130, and tumor necrosis factor receptor 2 as a promising therapeutic for COVID-19” (Molecular Biomedicine, 2025).

T1: mouse Hyper-IL-6 (mouse, UniProt P22272;P08505)
T1 construct: also called murine Hyper-IL-6; Hyper-IL-6-His; not shown: His tag, C-terminal, kept
T1 chain: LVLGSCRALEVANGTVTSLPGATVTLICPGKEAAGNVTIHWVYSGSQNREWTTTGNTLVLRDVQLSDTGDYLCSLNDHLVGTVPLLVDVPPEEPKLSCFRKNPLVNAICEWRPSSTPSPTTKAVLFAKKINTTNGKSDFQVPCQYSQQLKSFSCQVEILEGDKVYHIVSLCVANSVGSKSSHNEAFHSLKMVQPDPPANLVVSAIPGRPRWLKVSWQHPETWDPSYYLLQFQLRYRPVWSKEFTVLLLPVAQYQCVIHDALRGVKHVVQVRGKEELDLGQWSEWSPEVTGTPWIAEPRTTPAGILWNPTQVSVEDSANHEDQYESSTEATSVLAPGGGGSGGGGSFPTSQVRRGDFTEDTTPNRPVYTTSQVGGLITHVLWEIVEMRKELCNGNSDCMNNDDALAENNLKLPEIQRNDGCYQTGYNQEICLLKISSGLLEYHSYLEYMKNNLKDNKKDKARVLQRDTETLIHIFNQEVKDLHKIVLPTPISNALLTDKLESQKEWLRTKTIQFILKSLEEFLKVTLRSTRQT

B1: ACE2 (M)-Fc-hGP130 (Fc fusion)
chain: QSTIEEQAKFFLDYFNHEAEDLFYQSSLASWNYNTNITEENVQNMNNAGDKWSAFLKEQSTWAQMYPLQEIQNLTVKLQLQALQQNGSSVLSEDKSKRLNTILNTMSTIYSTGKVCNPDNPQECLLLEPGLNEIMANSLDYNERLWAWESWRSEVGKQLRPLYEEYVVLKNEMARANHYEDYGDYWRGDYEVNGVDGYDYSRGQLIEDVEHTFEEIKPLYEHLHAYVRAKLMNAYPSYISPIGCLPAHLLGDMWGQFWTNLYSLTVPFGQKPNIDVTDAMVDQAWDAQRIFKEAEKFFVSVGLPNMTQGFWEYSMLTDPGNVQKAVCHPTAWDLGKGDFRILMCTKVTMDDFLTAHHEMGHIQYDMAYAAQPFLLRNGANEGFHEAVGEIMSLSAATPKHLKSIGLLSPDFQEDNETEINFLLKQALTIVGTLPFTYMLEKWRWMVFKGEIPKDQWMKKWWEMKREIVGVVEPVPHDETYCDPASLFHVSNDYSFIRYYTRTLYQFQFQEALCQAAKHEGPLHKCDISNSTEAGQKLFNMLRLGKSEPWTLALENVVGAKNMNVRPLLNYFEPLFTWLKDQNKNSFVGWSTDWSPYADQSIKVRISLKSALGDKAYEWNDNEMYLFRSSVAYAMRQYFLKVKNQMILFGEEDVRVANLKPRISFNFFVTAPKNVSDIIPRTEVEKAIRMSRSRINDAFRLNDNSLEFLGIQPTLGPPNQPPVSGGGGSGGGGSGGGGSELLDPCGYISPESPVVQLHSNFTAVCVLKEKCMDYFHVNANYIVWKTNHFTIPKEQYTIINRTASSVTFTDIASLNIQLTCNILTFGQLEQNVYGITIISGLPPEKPKNLSCIVNEGKKMRCEWDGGRETHLETNFTLKSEWATHKFADCKAKRDTPTSCTVDYSTVYFVNIEVWVEAENALGKVTSDHINFDPVYKVKPNPPHNLSVINSEELSSILKLTWTNPSIKSVIILKYNIQYRTKDASTWSQIPPEDTASTRSSFTVQDLKPFTEYVFRIRCMKEDGKGYWSDWSEEASGITYEDRPSKAPSFWYKIDPSHTQGYRTVQLVWKTLPPFEANGKILDYEVTLTRWKSHLQNYTVNATKLTVNLTNDRYLATLTVRNLVGKSDAAVLTIPACDFQATHPVMDLKAFPKDNMLWVEWTTPRESVKKYILEWCVLSDKAPCITDWQQEDGTVHRTYLRGNLAESKCYLITVTPVYADGPGSPESIKAYLKQAPPSKGPTVRTKKVGKNEAVLEWDQLPVDVQNGFIRNYTIFYRTIIGNETAVNVDSSHTEYTLSSLTSDTLYMVRMAAYTDEGGKDGPEFTFTTPKFAQGEIE
B2: ACE2 (M)-Fc-mGP130 (Fc fusion)
chain: QSTIEEQAKFFLDYFNHEAEDLFYQSSLASWNYNTNITEENVQNMNNAGDKWSAFLKEQSTWAQMYPLQEIQNLTVKLQLQALQQNGSSVLSEDKSKRLNTILNTMSTIYSTGKVCNPDNPQECLLLEPGLNEIMANSLDYNERLWAWESWRSEVGKQLRPLYEEYVVLKNEMARANHYEDYGDYWRGDYEVNGVDGYDYSRGQLIEDVEHTFEEIKPLYEHLHAYVRAKLMNAYPSYISPIGCLPAHLLGDMWGQFWTNLYSLTVPFGQKPNIDVTDAMVDQAWDAQRIFKEAEKFFVSVGLPNMTQGFWEYSMLTDPGNVQKAVCHPTAWDLGKGDFRILMCTKVTMDDFLTAHHEMGHIQYDMAYAAQPFLLRNGANEGFHEAVGEIMSLSAATPKHLKSIGLLSPDFQEDNETEINFLLKQALTIVGTLPFTYMLEKWRWMVFKGEIPKDQWMKKWWEMKREIVGVVEPVPHDETYCDPASLFHVSNDYSFIRYYTRTLYQFQFQEALCQAAKHEGPLHKCDISNSTEAGQKLFNMLRLGKSEPWTLALENVVGAKNMNVRPLLNYFEPLFTWLKDQNKNSFVGWSTDWSPYADQSIKVRISLKSALGDKAYEWNDNEMYLFRSSVAYAMRQYFLKVKNQMILFGEEDVRVANLKPRISFNFFVTAPKNVSDIIPRTEVEKAIRMSRSRINDAFRLNDNSLEFLGIQPTLGPPNQPPVSGGGGSGGGGSGGGGSQLLEPCGYIYPEFPVVQRGSNFTAICVLKEACLQHYYVNASYIVWKTNHAAVPREQVTVINRTTSSVTFTDVVLPSVQLTCNILSFGQIEQNVYGVTMLSGFPPDKPTNLTCIVNEGKNMLCQWDPGRETYLETNYTLKSEWATEKFPDCQSKHGTSCMVSYMPTYYVNIEVWVEAENALGKVSSESINFDPVDKVKPTPPYNLSVTNSEELSSILKLSWVSSGLGGLLDLKSDIQYRTKDASTWIQVPLEDTMSPRTSFTVQDLKPFTEYVFRIRSIKDSGKGYWSDWSEEASGTTYEDRPSRPPSFWYKTNPSHGQEYRSVRLIWKALPLSEANGKILDYEVILTQSKSVSQTYTVTGTELTVNLTNDRYVASLAARNKVGKSAAAVLTIPSPHVTAAYSVVNLKAFPKDNLLWVEWTPPPKPVSKYILEWCVLSENAPCVEDWQQEDATVNRTHLRGRLLESKCYQITVTPVFATGPGGSESLKAYLKQAAPARGPTVRTKKVGKNEAVLAWDQIPVDDQNGFIRNYSISYRTSVGKEMVVHVDSSHTEYTLSSLSSDTLYMVRMAAYTDEGGKDGPEFTFTTPKFAQGEIE

What was measured:
[1] = molecular target: human Hyper-IL-6 (human, UniProt P08887 20-355); test: ELISA; plates coated with 2 μg/mL Hyper-IL-6-His in carbonate-bicarbonate buffer pH 9.6; serial dilutions of fusion proteins from 50 nM, 1 h at 37 °C; HRP anti-human IgG; details: both partners purified
[2] = molecular target: T1, mouse Hyper-IL-6; test: as above; details: both partners purified

Row | Binder | EC50 [1] [nM] | EC50 [2] [nM]
1 | B1 | 1.55 | –
2 | B2 | – | 1.83
